# Assay results as given in patent US5981483A, “Compositions comprising modulators of cytokines of the TGF-β superfamily” (Mount Sinai Hospital Corporation, priority 1997, dated 1999).
# Experiments:
# TGF-β1 = target: T1, TGF-β1 (Homo sapiens, UniProt P01137); assay: 3H-Thymidine incorporation in Mv1Lu cells: neutralization of the antiproliferative activity of TGF-β1; format: cell-based
# T1 construct: The mature processed cytokines produced from the members of the gene family show almost 100% amino acid identity between species; purchased Collaborative Research (Bedford, Mass.)
# T1 sequence (P01137 279-390 limits assumed): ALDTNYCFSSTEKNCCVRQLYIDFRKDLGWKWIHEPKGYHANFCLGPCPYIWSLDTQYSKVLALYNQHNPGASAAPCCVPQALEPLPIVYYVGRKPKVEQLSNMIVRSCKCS
# Protocol: Mv1Lu cells were seeded at 20,000 cells/well in a 96 well plate containing 0.2% FCS in α-MEM and incubated with the indicated concentrations of proteins for 18 hr. The cells were then pulsed with 8 μCi/ml methyl-^3 H-thymidine (NEN, Boston, Mass.) for 6 hr. Cells were trypsinized, harvested onto filtermats and counted in a β-Counter. Percent neutralization is defined as incorporation in the presence of 12 pM TGF-β1 alone set at 0%, and incorporation without additions as 100%. The difference in ^3 H-thymidine incorporation between 0% and 100% was 7.5 fold. Each point in FIG. 1 and FIG. 12 represents the mean of duplicate determinations, and the results are representative of three experiments. […] Before use, bovine thyroglobulin was spun twice in a centricon (M.W. cutoff of 10,000 Da) micro-concentrator (Amicon, Beverly, Mass.) to remove any excess Iodine and T3/T4 thyroid hormones.
# BMP-2 = target: T2, BMP-2 (Homo sapiens, UniProt P12643); assay: BIAcore surface plasmon resonance, binding to immobilized BMP-2; conditions: ligand BMP-2
# T2 construct: Genetics Institute, Cambridge, Mass; (gift)
# T2 sequence (P12643 283-396): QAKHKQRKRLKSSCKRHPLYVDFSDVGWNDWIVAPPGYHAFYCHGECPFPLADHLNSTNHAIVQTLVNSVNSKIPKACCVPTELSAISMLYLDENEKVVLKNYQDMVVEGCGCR
# Protocol: (§1) In this system, a purified protein serving as the ligand is covalently coupled to a carboxymethylated dextran surface, and binding molecules (i.e. the analyte) are passed in a fluid phase across the surface. Binding of the analyte to ligand causes a change in reflected light which is directly proportional to mass bound, and is measured in arbitrary response units (R.U.). Analyte-ligand binding is observed as both increasing response with time during the injection of analyte, and the difference in the position of the baseline before and after injection.
# (§2) Schuster, R. V. Swanson, L. A. Alex, R. B. Bourret, M. I. Simon, Nature 365, 343 (1993). 1000 R.U. equals approximately 1 ng/mm^2. The running buffer was 20 mM Hepes (pH 7.2), 150 mM NaCl and the flow rate for all sensorgrams was 3 μl/min.
# (§3) Regeneration of the surface to remove bound analyte was done by injection of 10 μl of 20 mM NaOH. To cyclize TRH1 peptides, the material was reduced with 5 mM DTT then brought to a final concentration of 60 μM in 25 mM ammonium acetate (pH 8.5). After stirring in the dark for 30 min at 20° C. with 30 mM potassium ferricyanide, the peptide was mixed with AG3-X4A resin (BioRad), filtered, lyophilization and desalted on a 50×2.5 cm column of Biogel P2 (Pharmacia) developed in water, and further purified by reverse phase HPLC.
# Injection volumes were 36 μl for FIG. 2, 4 and 5 and 45 μl for FIG. 3. […] Protein concentrations in each experiment were (FIGS. 2 and 3), 2, 5, 10, 20, 30, 40 μM; (FIG. 4), 0.21, 0.31, 0.41, 0.62, 0.82, 1.24 μM; (FIG. 5), 0.22, 0.29, 0.44, 0.59, 0.88 μM. R.U. for the immobilized cytokine in each experiment was 2850 R.U. for FIGS. 2 and 3; 7450 R.U. for FIG. 4, and 5300 R.U., for FIG. 5 respectively.
# (§4) Data was analyzed using the BIA-evaluation software (Pharmacia Biosensor). The association rate constant, kass, was calculated by first plotting the change in response with time versus response (i.e. dR/dT vs R). When the slope of the line from this graph is plotted versus analyte concentration (i.e d(dR/dT)/dR vs C), kass is obtained from the slope of the line. The dissociation rate constant, kdiss, is obtained during the decrease in response with time after analyte injection is discontinued. Specifically, kdiss was obtained from the slope of the line in a plot of ln(Rt1 /Rtn) vs time. The affinity constants were calculated from KD =kdiss /kass. Variance for kass is standard error of the linear regression plot, and for kdiss values are the mean ± range of 3 or more independent injections.
# TGF-β2 = target: T3, TGF-β2 (Homo sapiens, UniProt P61812); assay: BIAcore surface plasmon resonance, binding to immobilized TGF-β2; conditions: ligand TGF-β2
# T3 construct: The mature processed cytokines produced from the members of the gene family show almost 100% amino acid identity between species
# T3 sequence (P61812 303-414 limits assumed): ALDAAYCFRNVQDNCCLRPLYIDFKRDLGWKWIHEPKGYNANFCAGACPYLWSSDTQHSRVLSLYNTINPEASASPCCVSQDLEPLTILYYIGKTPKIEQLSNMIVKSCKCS
# Protocol: as §1, §2, §3
# as §4, with “Variance for kass is standard error of the linear regression plot, and for kdiss values are the mean ± range of 3 or more independent injections.” left out
# [1] = Table 2 (calculations repeated)
substance,measurement,setting,value
"Fetuin: Bovine fetal fetuin, glycoprotein obtained by ammonium sulfate fractionation of FCS and gel filtration (Sigma)","Maximal effect, percent neutralization","TGF-β1; 12 pM TGF-β1, FIG. 1",approximately 150%
same,IC50,"TGF-β1; 18 pM human TGF-β1, FIG. 12, read-out: IC50, blocking of anti-proliferative activity of exogenously-added TGF-β1",~3000 nM
same,kass,BMP-2; Table 1,1700 ± 300 M⁻¹ s⁻¹
same,kass,"BMP-2; Table 1, listed as fetuin",1700 M⁻¹ s⁻¹
same,kdiss,"BMP-2; Table 1, listed as fetuin",6.2e-05 s⁻¹
same,kass,BMP-2; [1],2400 ± 1200 M⁻¹ s⁻¹
same,kdiss,BMP-2; [1],6.5e-05 s⁻¹
same,Kd,"BMP-2; Table 2 (calculations repeated), KD = kdiss/kass",27 nM
same,kass,TGF-β2; Table 1,550 ± 120 M⁻¹ s⁻¹
same,kass,TGF-β2; [1],550 ± 120 M⁻¹ s⁻¹
